The results in this text go back to article doi:10.1101/2025.06.14.659634 (bioRxiv, 2025).

Series [1] concerns the molecule itself. Briefly: glycerol density gradient centrifugation.
Series [2] concerns the molecule itself. Briefly: cryo-EM structure.

B1: erlin1 with a C-terminal Flag tag, overexpressed alone (natural protein, human, UniProt O75477 1-348, looked up)
chain: MNMTQARVLVAAVVGLVAVLLYASIHKIEEGHLAVYYRGGALLTSPSGPGYHIMLPFITTFRSVQTTLQTDEVKNVPCGTSGGVMIYIDRIEVVNMLAPYAVFDIVRNYTADYDKTLIFNKIHHELNQFCSAHTLQEVYIELFDQIDENLKQALQKDLNLMAPGLTIQAVRVTKPKIPEAIRRNFELMEAEKTKLLIAAQKQKVVEKEAETERKKAVIEAEKIAQVAKIRFQQKVMEKETEKRISEIEDAAFLAREKAKADAEYYAAHKYATSNKHKLTPEYLELKKYQAIASNSKIYFGSNIPNMFVDSSCALKYSDIRTGRESSLPSKEALEPSGENVIQNKESTG
Regarding B1, the binding result in series [1] was “binds”.

B2: erlin1 fused with a twin-Strep tag, co-expressed with erlin2 through a P2A sequence (natural protein, human, UniProt O75477 1-348, looked up)
chain: MNMTQARVLVAAVVGLVAVLLYASIHKIEEGHLAVYYRGGALLTSPSGPGYHIMLPFITTFRSVQTTLQTDEVKNVPCGTSGGVMIYIDRIEVVNMLAPYAVFDIVRNYTADYDKTLIFNKIHHELNQFCSAHTLQEVYIELFDQIDENLKQALQKDLNLMAPGLTIQAVRVTKPKIPEAIRRNFELMEAEKTKLLIAAQKQKVVEKEAETERKKAVIEAEKIAQVAKIRFQQKVMEKETEKRISEIEDAAFLAREKAKADAEYYAAHKYATSNKHKLTPEYLELKKYQAIASNSKIYFGSNIPNMFVDSSCALKYSDIRTGRESSLPSKEALEPSGENVIQNKESTG
modifications: N108 glycosylated (seen in the density map); intramolecular disulfide bond C78-C130
As to B2, the binding result in series [2] was “binds”.

B3: erlin2 with a C-terminal Flag tag, overexpressed alone (natural protein, human, UniProt O94905 1-339, looked up)
chain: MAQLGAVVAVASSFFCASLFSAVHKIEEGHIGVYYRGGALLTSTSGPGFHLMLPFITSYKSVQTTLQTDEVKNVPCGTSGGVMIYFDRIEVVNFLVPNAVYDIVKNYTADYDKALIFNKIHHELNQFCSVHTLQEVYIELFDQIDENLKLALQQDLTSMAPGLVIQAVRVTKPNIPEAIRRNYELMESEKTKLLIAAQKQKVVEKEAETERKKALIEAEKVAQVAEITYGQKVMEKETEKKISEIEDAAFLAREKAKADAECYTAMKIAEANKLKLTPEYLQLMKYKAIASNSKIYFGKDIPNMFMDSAGSVSKQFEGLADKLSFGLEDEPLETATKEN
Regarding B3, in series [1], the binding result is “binds”.
